Results reported in the supplement of paper PMC10065799, “High-throughput profiling of sequence recognition by tyrosine kinases and SH2 domains using bacterial peptide display” (eLife, 2023).

Assays:
SHP2-C SH2 = assay: SH2 binding enrichment of the phosphorylated peptide, bacterial display (enrichment ratio); higher = better substrate or ligand; peptides without Tyr show the background
Grb2 SH2 = Grb2 SH2 (UniProt P62993); assay: as above
c-Src SH2 = assay: as above
Fes = Fes (UniProt P07332); assay: phosphorylation enrichment, bacterial display (enrichment ratio); higher = better substrate or ligand; peptides without Tyr show the background
Chain of Fes (P07332 whole entry, looked up): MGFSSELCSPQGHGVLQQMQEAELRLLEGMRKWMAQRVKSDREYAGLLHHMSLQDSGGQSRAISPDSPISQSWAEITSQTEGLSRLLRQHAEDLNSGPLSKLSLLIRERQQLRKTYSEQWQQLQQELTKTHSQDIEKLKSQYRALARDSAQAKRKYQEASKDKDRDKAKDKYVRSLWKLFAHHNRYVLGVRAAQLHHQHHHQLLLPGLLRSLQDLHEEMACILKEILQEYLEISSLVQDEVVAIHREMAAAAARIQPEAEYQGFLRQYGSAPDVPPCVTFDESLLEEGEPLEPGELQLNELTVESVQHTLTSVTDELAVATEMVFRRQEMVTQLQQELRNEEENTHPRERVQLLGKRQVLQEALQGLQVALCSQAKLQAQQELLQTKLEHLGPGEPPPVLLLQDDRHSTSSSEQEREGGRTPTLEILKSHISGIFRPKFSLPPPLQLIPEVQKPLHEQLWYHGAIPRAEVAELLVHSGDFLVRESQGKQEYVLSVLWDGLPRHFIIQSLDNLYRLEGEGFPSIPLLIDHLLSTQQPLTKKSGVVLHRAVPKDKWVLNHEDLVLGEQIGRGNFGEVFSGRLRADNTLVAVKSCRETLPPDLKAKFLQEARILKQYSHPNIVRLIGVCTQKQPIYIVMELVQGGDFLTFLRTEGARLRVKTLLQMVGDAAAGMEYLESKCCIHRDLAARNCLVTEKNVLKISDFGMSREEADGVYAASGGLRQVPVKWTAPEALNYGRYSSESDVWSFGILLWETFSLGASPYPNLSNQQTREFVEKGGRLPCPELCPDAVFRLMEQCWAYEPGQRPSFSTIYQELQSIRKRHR

FGFR1 = FGFR1 (UniProt P11362); assay: as above
Fyn = Fyn (UniProt P06241); assay: as above
Chain of Fyn (P06241 whole entry, looked up): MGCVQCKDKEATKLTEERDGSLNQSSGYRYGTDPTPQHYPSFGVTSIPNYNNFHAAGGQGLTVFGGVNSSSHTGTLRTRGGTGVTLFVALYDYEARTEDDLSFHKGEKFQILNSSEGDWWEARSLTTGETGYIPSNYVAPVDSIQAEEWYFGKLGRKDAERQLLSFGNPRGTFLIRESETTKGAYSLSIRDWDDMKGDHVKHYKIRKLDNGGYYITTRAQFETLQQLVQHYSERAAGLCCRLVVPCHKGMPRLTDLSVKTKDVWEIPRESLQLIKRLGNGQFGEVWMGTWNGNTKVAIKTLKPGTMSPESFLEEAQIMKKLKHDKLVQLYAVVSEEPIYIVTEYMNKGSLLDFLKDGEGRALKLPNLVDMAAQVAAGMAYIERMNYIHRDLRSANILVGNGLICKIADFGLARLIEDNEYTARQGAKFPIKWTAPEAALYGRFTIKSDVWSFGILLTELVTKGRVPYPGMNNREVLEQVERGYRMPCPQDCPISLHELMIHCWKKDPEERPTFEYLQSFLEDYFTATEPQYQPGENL

Hck = Hck (UniProt P08631); assay: as above
Chain of Hck (P08631 whole entry, looked up): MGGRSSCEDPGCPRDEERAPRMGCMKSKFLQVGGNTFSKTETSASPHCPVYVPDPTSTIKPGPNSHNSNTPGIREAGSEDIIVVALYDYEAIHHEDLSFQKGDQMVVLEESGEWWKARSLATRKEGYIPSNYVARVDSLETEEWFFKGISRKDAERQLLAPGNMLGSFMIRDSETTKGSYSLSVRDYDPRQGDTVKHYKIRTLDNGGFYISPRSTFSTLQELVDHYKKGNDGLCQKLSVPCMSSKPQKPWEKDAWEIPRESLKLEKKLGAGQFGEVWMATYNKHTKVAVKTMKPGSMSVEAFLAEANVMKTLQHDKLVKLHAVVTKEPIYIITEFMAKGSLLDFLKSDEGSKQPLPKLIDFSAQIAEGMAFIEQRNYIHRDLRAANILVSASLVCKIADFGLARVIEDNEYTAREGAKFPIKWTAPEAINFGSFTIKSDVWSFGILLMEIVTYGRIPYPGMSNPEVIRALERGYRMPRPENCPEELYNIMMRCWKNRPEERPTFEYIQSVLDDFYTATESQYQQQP

FGFR3 = FGFR3 (UniProt P22607); assay: as above
Chain of FGFR3 (P22607 whole entry, looked up): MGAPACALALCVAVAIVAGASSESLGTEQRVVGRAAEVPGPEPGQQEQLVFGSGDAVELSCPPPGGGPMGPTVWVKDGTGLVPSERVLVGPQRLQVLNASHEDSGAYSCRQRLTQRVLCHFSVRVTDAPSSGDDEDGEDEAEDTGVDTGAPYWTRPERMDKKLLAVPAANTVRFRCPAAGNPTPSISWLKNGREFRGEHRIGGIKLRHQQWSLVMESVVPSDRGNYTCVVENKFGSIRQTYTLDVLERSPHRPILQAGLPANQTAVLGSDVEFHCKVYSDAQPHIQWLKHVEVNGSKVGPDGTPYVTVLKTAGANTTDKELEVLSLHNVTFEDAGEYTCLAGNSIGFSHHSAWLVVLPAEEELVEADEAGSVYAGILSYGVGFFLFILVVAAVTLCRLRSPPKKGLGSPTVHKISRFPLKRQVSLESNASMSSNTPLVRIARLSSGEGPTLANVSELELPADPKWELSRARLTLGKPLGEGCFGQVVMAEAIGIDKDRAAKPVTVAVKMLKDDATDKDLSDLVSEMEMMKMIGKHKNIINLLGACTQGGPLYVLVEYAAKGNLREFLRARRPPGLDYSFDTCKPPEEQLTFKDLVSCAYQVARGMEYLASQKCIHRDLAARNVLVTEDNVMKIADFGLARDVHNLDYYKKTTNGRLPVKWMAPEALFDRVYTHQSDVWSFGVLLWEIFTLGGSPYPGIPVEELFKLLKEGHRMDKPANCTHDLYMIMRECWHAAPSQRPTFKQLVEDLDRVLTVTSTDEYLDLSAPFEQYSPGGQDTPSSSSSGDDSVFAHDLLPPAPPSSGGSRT

EPHB1 = EPHB1 (UniProt P54762); assay: as above
Chain of EPHB1 (P54762 whole entry, looked up): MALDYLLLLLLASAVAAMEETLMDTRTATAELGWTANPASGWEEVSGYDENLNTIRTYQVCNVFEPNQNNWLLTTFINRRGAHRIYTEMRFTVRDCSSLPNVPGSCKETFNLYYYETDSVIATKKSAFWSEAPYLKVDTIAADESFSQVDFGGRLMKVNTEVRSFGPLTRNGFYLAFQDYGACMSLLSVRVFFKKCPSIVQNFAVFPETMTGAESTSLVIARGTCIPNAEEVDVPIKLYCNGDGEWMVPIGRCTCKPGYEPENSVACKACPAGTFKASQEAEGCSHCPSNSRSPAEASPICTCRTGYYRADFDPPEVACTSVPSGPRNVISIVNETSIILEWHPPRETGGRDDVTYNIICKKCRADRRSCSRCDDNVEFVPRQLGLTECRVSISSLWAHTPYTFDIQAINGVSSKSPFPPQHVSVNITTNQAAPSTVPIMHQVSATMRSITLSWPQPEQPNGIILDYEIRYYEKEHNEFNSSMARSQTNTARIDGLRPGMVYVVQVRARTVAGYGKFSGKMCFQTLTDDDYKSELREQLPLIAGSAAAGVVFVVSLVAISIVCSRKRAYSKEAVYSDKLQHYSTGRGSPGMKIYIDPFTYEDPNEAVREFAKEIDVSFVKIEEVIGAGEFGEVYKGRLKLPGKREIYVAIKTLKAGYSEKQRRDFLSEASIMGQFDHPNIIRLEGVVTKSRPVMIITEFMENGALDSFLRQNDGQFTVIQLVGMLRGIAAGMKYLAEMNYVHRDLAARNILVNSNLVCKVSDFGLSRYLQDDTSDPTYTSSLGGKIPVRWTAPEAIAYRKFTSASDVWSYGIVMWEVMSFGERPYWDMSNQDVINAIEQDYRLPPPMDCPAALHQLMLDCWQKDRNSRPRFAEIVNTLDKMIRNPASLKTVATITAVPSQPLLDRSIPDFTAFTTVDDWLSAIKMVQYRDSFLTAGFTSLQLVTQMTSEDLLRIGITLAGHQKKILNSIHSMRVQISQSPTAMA

c-Abl (mouse) = assay: as above
MERTK = MERTK (UniProt Q12866); assay: as above
Chain of MERTK (Q12866 whole entry, looked up): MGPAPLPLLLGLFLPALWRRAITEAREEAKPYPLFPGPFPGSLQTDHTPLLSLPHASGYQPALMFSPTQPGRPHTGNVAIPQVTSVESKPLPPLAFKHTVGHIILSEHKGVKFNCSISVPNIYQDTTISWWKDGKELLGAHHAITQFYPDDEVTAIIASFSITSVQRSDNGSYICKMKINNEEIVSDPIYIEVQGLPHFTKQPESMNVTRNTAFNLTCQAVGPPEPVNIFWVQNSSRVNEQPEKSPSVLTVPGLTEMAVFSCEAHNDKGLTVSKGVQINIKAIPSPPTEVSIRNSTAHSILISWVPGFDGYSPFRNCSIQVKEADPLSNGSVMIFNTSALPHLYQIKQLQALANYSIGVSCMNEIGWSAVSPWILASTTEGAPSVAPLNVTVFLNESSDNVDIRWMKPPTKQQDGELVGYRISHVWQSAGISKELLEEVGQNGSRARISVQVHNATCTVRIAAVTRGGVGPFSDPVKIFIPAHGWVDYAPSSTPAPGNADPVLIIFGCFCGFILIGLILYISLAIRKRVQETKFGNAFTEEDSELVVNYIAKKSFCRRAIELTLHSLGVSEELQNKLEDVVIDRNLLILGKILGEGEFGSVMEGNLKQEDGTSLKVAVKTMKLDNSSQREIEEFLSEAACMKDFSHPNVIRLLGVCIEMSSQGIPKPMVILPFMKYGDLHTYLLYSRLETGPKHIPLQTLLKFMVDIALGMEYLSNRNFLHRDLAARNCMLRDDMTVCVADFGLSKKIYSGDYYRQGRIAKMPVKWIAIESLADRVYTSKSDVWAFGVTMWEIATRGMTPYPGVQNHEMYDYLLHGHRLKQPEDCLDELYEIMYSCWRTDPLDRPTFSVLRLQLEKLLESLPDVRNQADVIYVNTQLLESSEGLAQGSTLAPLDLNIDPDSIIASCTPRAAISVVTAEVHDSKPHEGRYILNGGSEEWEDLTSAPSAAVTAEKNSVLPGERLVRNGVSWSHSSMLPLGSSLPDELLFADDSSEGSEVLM

c-Src = assay: as above
Fer (mouse) = assay: as above
Jak2 = Jak2 (UniProt O60674); assay: as above
EPHB2 = EPHB2 (UniProt P29323); assay: as above
AncSZ = assay: as above
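Throughout, for SH2 binding enrichment of the phosphorylated peptide, bacterial display: peptide library displayed on the E. coli surface as eCPX fusions, selected cells deep-sequenced, score is each peptide's frequency after selection divided by its frequency in the input.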
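Throughout, for phosphorylation enrichment, bacterial display: 11-residue human phosphosite peptides and single-mutation variants displayed on the E. coli surface, counted by deep sequencing, each peptide's frequency after selection divided by its frequency in the unselected input library; frequency after pTyr selection over input frequency; kinase dosed for 20-30% of maximal phosphorylation in three min.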

Row | Sequence | SH2 binding enrichment (SHP2-C SH2) | SH2 binding enrichment (Grb2 SH2) | SH2 binding enrichment (c-Src SH2) | phosphorylation enrichment (Fes) | phosphorylation enrichment (FGFR1) | phosphorylation enrichment (Fyn) | phosphorylation enrichment (Hck) | phosphorylation enrichment (FGFR3) | phosphorylation enrichment (EPHB1) | phosphorylation enrichment (c-Abl (mouse)) | phosphorylation enrichment (MERTK) | phosphorylation enrichment (c-Src) | phosphorylation enrichment (Fer (mouse)) | phosphorylation enrichment (Jak2) | phosphorylation enrichment (EPHB2) | phosphorylation enrichment (AncSZ)
1 | VPANRYDLLRL [FARSB_Y72_C76R] | 0.648 | 0.765 | 3.31 | 0.65 | 0.414 | 0.39 | 0.429 | 0.58 | 0.424 | 0.498 | 0.451 | 0.393 | 0.452 | 0.54 | 0.403 | 0.519
2 | VPLLEYFWDIF [CDAN1_Y712_R714W_YF] | 2.12 | 1.8 | 1.68 | 1.16 | 3.61 | 0.449 | 0.432 | 2.73 | 0.455 | 0.666 | 0.413 | 0.411 | 0.439 | 1.12 | 0.469 | 1.02
3 | VPLLEYYRDIF [CDAN1_Y712] | 0.968 | 0.911 | 1.05 | 1.24 | 3.63 | 0.444 | 0.508 | 2.83 | 0.564 | 0.728 | 0.441 | 0.553 | 0.544 | 2.64 | 0.647 | 0.998
4 | VRVQLYDPDFM [CYP4A22_Y100_Y104F] | 0.67 | 0.972 | 0.536 | 1.17 | 0.45 | 0.419 | 0.561 | 0.683 | 0.717 | 0.734 | 1.08 | 0.579 | 0.579 | 1.07 | 0.631 | 1.06
5 | VTAALYGCLFE [BTD_Y536_R538C_YF] | 0.606 | 0.85 | 0.52 | 1.55 | 0.602 | 5.63 | 3.97 | 0.998 | 0.916 | 1.02 | 1.54 | 4.03 | 1.1 | 1.13 | 1.03 | 1.3
6 | VTAALYGRLYE [BTD_Y536] | 0.838 | 0.899 | 1.12 | 1.04 | 0.498 | 5.26 | 5.15 | 0.724 | 1.06 | 0.888 | 2.68 | 4.81 | 1.31 | 0.904 | 1.43 | 0.883
7 | VTQEPYELFCE [CBL_Y368_Q367P_YF] | 0.944 | 1.01 | 0.719 | 1.32 | 0.649 | 0.793 | 0.569 | 0.938 | 0.74 | 0.817 | 0.592 | 1.19 | 1.15 | 0.998 | 0.687 | 1.58
8 | VTRDEYPSNPM [CEMIP2_Y1015_I1010V] | 0.783 | 0.67 | 0.564 | 0.751 | 0.323 | 0.356 | 0.397 | 0.491 | 0.411 | 0.523 | 0.487 | 0.394 | 0.339 | 0.696 | 0.417 | 0.6
9 | YASALYGQRRS [FGF11_Y162_R163G] | 0.424 | 0.675 | 0.553 | 0.668 | 0.371 | 0.659 | 1.54 | 0.408 | 0.391 | 0.978 | 0.505 | 0.784 | 0.411 | 0.604 | 0.384 | 0.633
10 | YCIDHYLGKEM [G6PD_Y202_R198C] | 1.05 | 0.981 | 1.01 | 0.827 | 0.567 | 0.503 | 0.694 | 0.558 | 0.499 | 0.611 | 0.64 | 0.606 | 0.952 | 0.75 | 0.567 | 0.892
11 | YEPDAYDDLDQ [ELP5_Y302] | 0.764 | 0.767 | 1.07 | 1.19 | 0.56 | 0.496 | 0.548 | 0.842 | 0.542 | 0.769 | 0.403 | 0.482 | 0.663 | 0.919 | 0.523 | 1.26
12 | YETVKYFNNER [ABCB7_Y345] | 1.13 | 0.868 | 9.64 | 0.869 | 1.95 | 1.37 | 1.83 | 1.32 | 0.792 | 0.64 | 0.844 | 1.14 | 9.57 | 0.683 | 0.611 | 0.881
13 | YFRDGHMPRQY [GSS_Y270_Y270H] | 0.821 | 1.04 | 0.51 | 0.584 | 0.531 | 0.443 | 0.45 | 0.583 | 0.458 | 0.541 | 0.445 | 0.401 | 0.436 | 1.03 | 0.462 | 0.454
14 | YPIDHYLGKEM [G6PD_Y202_R198P] | 0.576 | 0.708 | 0.434 | 0.891 | 0.613 | 0.48 | 0.492 | 0.577 | 0.405 | 0.584 | 0.412 | 0.505 | 0.415 | 0.806 | 0.54 | 0.771

The next lines start with results.

Row | SH2 binding enrichment (SHP2-C SH2) | SH2 binding enrichment (Grb2 SH2) | SH2 binding enrichment (c-Src SH2) | Sequence | phosphorylation enrichment (Fes) | phosphorylation enrichment (FGFR1) | phosphorylation enrichment (Fyn) | phosphorylation enrichment (Hck) | phosphorylation enrichment (FGFR3) | phosphorylation enrichment (EPHB1) | phosphorylation enrichment (c-Abl (mouse)) | phosphorylation enrichment (MERTK) | phosphorylation enrichment (c-Src) | phosphorylation enrichment (Fer (mouse)) | phosphorylation enrichment (Jak2) | phosphorylation enrichment (EPHB2) | phosphorylation enrichment (AncSZ)
15 | 0.476 | 0.539 | 0.391 | VREIRYQGGNR [VWF_Y1570] | 0.653 | 0.378 | 0.421 | 0.42 | 0.382 | 0.329 | 0.615 | 0.522 | 0.495 | 0.402 | 0.968 | 0.511 | 0.597
16 | 0.604 | 0.801 | 22.5 | VVHGSYDEIEG [SEC24A_Y263_S261G] | 0.9 | 0.395 | 0.395 | 0.469 | 0.591 | 0.424 | 1.07 | 0.431 | 0.536 | 0.594 | 0.887 | 0.387 | 0.914
17 | 1.03 | 1.28 | 0.906 | VVLVSYVPFSQ [SH2B1_Y624_S627F] | 1.37 | 0.526 | 0.55 | 0.648 | 0.771 | 0.716 | 0.938 | 0.496 | 0.833 | 0.501 | 1.38 | 0.702 | 1.29
18 | 0.538 | 0.903 | 0.601 | VYSTDCYRVGG [NTRK2_Y706_Y706C] | 1.16 | 0.787 | 2.56 | 1.38 | 0.769 | 2.13 | 0.808 | 7.43 | 2.23 | 0.824 | 0.972 | 1.01 | 1.07
19 | 0.885 | 0.871 | 0.513 | WIPIQCPIISE [NOG_Y222_Y222C] | 1.41 | 0.54 | 0.551 | 0.563 | 1.04 | 0.818 | 0.836 | 0.373 | 0.433 | 0.54 | 1.12 | 0.591 | 1.31
20 | 0.71 | 0.964 | 0.5 | WISNRYPDFSS [PRPH2_Y184_L185P] | 0.953 | 0.533 | 0.404 | 0.497 | 0.685 | 0.434 | 0.66 | 0.487 | 0.52 | 0.484 | 0.841 | 0.552 | 0.798
21 | 1.18 | 1.31 | 1.28 | WLQKLYNNFVN [MYO5C_Y526] | 1.4 | 0.459 | 0.472 | 0.655 | 0.774 | 0.528 | 0.874 | 0.429 | 0.501 | 0.483 | 1 | 0.57 | 1.25
22 | 0.561 | 0.939 | 0.366 | WRRLIYRCQVG [NR2E3_Y81_R76W] | 0.784 | 0.487 | 0.452 | 0.424 | 0.515 | 0.389 | 0.65 | 0.484 | 0.494 | 0.489 | 0.837 | 0.486 | 0.906
23 | 0.791 | 0.847 | 1.42 | YCRITYDIFPF [INTS13_Y67_M66T] | 1.59 | 1.28 | 1.57 | 2.72 | 1.38 | 3.8 | 1.18 | 2.83 | 2.57 | 0.785 | 1.45 | 3.79 | 1.8
24 | 1.11 | 0.955 | 0.725 | YGGLRYGYGGL [KRTAP20-2_Y13_V17G] | 0.839 | 0.407 | 0.959 | 1.42 | 0.536 | 0.418 | 0.559 | 0.381 | 0.76 | 0.407 | 0.671 | 0.427 | 0.645
25 | 0.472 | 0.765 | 0.947 | YGGRDYSLDEF [MYOF_Y1705] | 1.1 | 0.582 | 0.657 | 0.603 | 0.697 | 0.594 | 0.809 | 0.454 | 0.594 | 0.618 | 0.945 | 0.609 | 0.981
26 | 0.673 | 0.813 | 0.682 | YGSGNYNVFGN [HNRNPA2B1_Y300_D302V] | 0.828 | 0.539 | 0.76 | 0.882 | 0.63 | 0.666 | 0.49 | 0.639 | 0.653 | 0.561 | 0.683 | 0.797 | 0.737
27 | 0.71 | 0.802 | 4.38 | YLELNYKEDEY [MME_Y502] | 1.43 | 4.36 | 0.63 | 1.21 | 3.65 | 0.786 | 0.929 | 0.923 | 0.88 | 0.55 | 1.3 | 0.478 | 1.78
28 | 2.57 | 24.6 | 4.78 | YLNSSYINIST [IL23R_Y178_T175N] | 0.799 | 2.69 | 0.475 | 0.591 | 2.14 | 0.525 | 0.574 | 0.606 | 0.436 | 0.439 | 1.23 | 0.453 | 0.875
29 | 0.832 | 1.12 | 0.865 | YMKEPYIQSRF [HIPK4_Y175_V171M] | 0.703 | 0.611 | 0.461 | 0.36 | 0.623 | 0.364 | 0.632 | 0.659 | 0.563 | 0.488 | 0.855 | 0.392 | 0.622
30 | 0.552 | 0.833 | 0.388 | YNDSAYNQQLI [ZPLD1_Y198_T197A] | 0.93 | 0.499 | 0.49 | 0.48 | 0.68 | 0.455 | 0.634 | 0.388 | 0.418 | 0.46 | 0.696 | 0.527 | 0.987
31 | 1.68 | 1.62 | 2.5 | YQRITYHNWRH [PDE6B_Y556_R552Q] | 0.619 | 0.626 | 0.446 | 0.579 | 0.618 | 0.386 | 0.485 | 0.482 | 0.486 | 0.461 | 0.561 | 0.483 | 0.59
32 | 0.609 | 0.704 | 0.411 | YRASYYRRGDR [LTK_Y677] | 0.485 | 0.511 | 0.534 | 0.494 | 0.431 | 0.446 | 0.693 | 0.603 | 0.598 | 0.496 | 0.436 | 0.535 | 0.653
33 | 0.825 | 0.998 | 0.938 | YRDMDYRSYPH [RBM10_Y41_R46H] | 0.64 | 3.25 | 0.412 | 0.457 | 2.1 | 0.578 | 0.5 | 0.357 | 0.376 | 0.487 | 0.621 | 0.486 | 0.567
